Assay results reported in patent US20220229068A1, “DETECTION OF PROTEIN TO PROTEIN INTERACTIONS” (THE GOVERNING COUNCIL OF THE UNIVERSITY OF TORONTO, priority 2019, published 2022).
One block for each binder: values may come before it.

Experiments:
Test in all cases: SIMPL ELISA, bait-IN/prey-CIC
[1] = target: DDIT3 (prey, CIC format) (human) (UniProt P35638)
[2] = target: LMNB1 (prey, CIC format) (human) (UniProt P20700)
[3] = target: T1, FRS2 (prey, CIC format) (human) (UniProt Q8WU20)
T1 sequence (looked up): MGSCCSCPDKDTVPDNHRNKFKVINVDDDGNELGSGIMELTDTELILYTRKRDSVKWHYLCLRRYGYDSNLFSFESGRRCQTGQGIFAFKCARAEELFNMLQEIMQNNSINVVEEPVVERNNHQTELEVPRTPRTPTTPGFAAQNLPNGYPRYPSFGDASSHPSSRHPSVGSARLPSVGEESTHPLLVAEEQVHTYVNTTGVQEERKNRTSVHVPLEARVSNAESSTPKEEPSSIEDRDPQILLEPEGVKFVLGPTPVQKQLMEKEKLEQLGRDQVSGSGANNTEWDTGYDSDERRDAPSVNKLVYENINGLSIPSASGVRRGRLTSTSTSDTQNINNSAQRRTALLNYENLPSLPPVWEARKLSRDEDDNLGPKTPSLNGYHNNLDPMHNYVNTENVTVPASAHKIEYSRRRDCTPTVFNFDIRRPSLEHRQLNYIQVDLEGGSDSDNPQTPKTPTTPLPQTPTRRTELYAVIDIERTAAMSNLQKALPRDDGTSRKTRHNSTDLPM

[4] = target: PCNA (prey, CIC format) (human) (UniProt P12004)
[5] = target: T2, PDPK1 (prey, CIC format) (human) (UniProt O15530)
T2 sequence (looked up): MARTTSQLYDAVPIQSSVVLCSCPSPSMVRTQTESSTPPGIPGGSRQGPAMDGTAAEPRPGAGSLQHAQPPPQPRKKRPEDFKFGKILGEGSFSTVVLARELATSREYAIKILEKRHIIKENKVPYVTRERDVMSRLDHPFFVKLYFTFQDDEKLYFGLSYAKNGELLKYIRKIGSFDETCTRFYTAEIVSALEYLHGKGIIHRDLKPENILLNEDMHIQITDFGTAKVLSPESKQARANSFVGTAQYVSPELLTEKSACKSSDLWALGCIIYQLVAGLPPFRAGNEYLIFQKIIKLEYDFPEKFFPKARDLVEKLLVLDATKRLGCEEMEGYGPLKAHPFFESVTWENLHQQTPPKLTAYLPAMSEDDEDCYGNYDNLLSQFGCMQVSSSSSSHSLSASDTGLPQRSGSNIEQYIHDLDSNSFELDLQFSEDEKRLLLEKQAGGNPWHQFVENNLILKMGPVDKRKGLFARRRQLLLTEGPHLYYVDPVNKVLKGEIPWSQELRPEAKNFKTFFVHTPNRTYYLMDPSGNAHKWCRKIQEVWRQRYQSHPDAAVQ

[6] = target: T3, BATF (prey, CIC format) (human) (UniProt Q16520)
T3 sequence (looked up): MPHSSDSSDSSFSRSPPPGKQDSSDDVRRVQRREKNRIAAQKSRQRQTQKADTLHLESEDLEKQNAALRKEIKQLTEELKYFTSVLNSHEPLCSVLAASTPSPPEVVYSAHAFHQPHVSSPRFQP

[7] = target: T4, PTPN11 (prey, CIC format) (human) (UniProt Q06124)
T4 sequence (looked up): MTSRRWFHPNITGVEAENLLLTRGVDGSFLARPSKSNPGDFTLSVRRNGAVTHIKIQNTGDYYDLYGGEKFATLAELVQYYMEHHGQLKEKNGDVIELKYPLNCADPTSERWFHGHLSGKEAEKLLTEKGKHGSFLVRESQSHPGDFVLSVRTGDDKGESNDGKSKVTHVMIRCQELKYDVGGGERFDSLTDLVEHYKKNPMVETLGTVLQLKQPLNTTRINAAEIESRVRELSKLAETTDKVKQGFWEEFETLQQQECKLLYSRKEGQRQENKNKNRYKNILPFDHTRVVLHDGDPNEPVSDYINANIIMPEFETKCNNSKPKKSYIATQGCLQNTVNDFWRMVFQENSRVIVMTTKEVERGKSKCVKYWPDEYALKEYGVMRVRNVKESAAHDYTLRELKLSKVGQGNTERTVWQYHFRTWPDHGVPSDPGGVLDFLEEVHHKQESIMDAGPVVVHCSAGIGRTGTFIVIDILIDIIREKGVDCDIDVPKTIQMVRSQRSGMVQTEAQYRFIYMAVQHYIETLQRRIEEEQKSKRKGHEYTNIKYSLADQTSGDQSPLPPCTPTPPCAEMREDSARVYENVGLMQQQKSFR

[8] = target: T5, NCBP2 (prey, CIC format) (human) (UniProt P52298)
T5 sequence (looked up): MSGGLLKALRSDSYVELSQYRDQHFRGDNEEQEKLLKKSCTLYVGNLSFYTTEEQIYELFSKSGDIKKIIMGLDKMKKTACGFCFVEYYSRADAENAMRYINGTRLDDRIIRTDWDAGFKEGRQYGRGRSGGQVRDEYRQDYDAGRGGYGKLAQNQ

[9] = target: T6, S100B (prey, CIC format) (human) (UniProt P04271)
T6 sequence (looked up): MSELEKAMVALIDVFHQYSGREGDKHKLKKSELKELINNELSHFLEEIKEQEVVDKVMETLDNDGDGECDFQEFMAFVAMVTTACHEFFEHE

[10] = target: ARHGAP1 (prey, CIC format) (human) (UniProt Q07960)
[11] = target: CASP9 (prey, CIC format) (human) (UniProt P55211)
[12] = substrate: FOS (prey, CIC format) (human) (UniProt P01100)
[13] = target: BCL2L1 (prey, CIC format) (human) (UniProt Q07817)
[14] = target: T7, DCP1A (prey, CIC format) (human) (UniProt Q9NPI6)
T7 sequence (looked up): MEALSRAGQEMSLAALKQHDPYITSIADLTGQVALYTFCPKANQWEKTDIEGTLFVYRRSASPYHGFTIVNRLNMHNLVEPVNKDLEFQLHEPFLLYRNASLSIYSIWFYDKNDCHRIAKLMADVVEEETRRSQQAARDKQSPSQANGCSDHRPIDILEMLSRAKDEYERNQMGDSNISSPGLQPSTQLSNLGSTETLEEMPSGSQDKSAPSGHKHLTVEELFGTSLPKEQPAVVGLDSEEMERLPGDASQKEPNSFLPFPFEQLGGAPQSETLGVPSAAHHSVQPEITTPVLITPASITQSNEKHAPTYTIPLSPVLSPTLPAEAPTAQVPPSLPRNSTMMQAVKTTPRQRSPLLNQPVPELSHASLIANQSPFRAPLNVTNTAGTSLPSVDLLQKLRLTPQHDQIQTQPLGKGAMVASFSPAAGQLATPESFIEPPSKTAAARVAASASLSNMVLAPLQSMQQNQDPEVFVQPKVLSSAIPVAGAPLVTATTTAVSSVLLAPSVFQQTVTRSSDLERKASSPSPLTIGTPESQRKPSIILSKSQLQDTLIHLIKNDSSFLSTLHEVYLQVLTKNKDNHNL

[15] = target: T8, DRAP1 (prey, CIC format) (human) (UniProt Q14919)
T8 sequence (looked up): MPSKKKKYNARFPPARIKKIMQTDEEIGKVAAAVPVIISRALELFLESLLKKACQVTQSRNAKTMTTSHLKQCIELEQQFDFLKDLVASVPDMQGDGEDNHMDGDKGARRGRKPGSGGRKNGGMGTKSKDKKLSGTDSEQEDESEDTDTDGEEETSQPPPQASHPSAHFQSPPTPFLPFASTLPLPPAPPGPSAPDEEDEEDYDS

[16] = target: T9, NTF4 (prey, CIC format) (human) (UniProt P34130)
T9 sequence (looked up): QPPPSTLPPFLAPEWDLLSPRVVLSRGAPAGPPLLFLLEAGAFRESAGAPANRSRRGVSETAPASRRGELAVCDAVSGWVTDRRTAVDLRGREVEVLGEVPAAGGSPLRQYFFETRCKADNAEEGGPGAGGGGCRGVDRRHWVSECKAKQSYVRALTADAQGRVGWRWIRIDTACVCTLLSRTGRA

CASP9 (prey, CIC format) (human), sequence (P55211 whole entry): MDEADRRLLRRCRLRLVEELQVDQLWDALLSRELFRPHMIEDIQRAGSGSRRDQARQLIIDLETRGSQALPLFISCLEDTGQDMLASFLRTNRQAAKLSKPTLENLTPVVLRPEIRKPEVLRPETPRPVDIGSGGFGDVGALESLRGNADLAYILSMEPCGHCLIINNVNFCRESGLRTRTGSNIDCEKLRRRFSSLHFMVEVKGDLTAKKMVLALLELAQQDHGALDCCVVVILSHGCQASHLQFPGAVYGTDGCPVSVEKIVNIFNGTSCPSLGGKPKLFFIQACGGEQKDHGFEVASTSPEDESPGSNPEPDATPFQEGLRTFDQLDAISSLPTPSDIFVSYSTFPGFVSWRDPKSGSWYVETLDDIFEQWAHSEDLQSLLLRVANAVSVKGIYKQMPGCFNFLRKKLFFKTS
PCNA (prey, CIC format) (human), sequence (P12004 whole entry): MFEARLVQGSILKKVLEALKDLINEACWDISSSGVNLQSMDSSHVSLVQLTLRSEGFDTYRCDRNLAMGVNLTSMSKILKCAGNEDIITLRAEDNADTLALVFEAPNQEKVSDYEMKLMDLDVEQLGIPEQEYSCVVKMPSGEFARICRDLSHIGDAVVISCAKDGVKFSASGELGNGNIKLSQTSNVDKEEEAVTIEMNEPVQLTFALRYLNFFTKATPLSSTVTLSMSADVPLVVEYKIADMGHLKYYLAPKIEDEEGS
ARHGAP1 (prey, CIC format) (human), sequence (Q07960 whole entry): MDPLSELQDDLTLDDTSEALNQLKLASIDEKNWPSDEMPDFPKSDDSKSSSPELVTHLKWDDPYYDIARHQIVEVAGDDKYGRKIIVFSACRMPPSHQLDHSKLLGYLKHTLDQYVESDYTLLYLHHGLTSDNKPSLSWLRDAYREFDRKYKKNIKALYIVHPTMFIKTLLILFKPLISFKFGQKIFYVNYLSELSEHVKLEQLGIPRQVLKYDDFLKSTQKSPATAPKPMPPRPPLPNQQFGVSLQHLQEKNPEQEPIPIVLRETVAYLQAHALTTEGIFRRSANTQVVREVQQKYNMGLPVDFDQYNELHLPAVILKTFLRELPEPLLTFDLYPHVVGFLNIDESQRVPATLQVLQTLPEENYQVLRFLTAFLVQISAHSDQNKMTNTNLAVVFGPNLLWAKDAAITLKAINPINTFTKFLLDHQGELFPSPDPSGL
DDIT3 (prey, CIC format) (human), sequence (P35638 whole entry): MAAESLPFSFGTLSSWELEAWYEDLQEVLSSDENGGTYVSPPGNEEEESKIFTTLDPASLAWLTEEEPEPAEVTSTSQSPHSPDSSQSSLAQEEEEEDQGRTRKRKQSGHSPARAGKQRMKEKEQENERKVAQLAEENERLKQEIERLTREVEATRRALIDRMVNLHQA
FOS (prey, CIC format) (human), sequence (P01100 whole entry): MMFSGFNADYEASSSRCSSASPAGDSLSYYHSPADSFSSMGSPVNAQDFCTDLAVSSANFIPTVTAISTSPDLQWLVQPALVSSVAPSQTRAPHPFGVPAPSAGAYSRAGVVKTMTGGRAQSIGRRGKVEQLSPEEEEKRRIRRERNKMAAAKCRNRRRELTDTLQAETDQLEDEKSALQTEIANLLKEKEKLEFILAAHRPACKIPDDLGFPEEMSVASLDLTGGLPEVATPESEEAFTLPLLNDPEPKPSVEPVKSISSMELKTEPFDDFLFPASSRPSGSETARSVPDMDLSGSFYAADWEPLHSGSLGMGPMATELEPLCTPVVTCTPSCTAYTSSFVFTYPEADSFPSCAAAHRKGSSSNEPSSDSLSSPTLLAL
BCL2L1 (prey, CIC format) (human), sequence (Q07817 whole entry): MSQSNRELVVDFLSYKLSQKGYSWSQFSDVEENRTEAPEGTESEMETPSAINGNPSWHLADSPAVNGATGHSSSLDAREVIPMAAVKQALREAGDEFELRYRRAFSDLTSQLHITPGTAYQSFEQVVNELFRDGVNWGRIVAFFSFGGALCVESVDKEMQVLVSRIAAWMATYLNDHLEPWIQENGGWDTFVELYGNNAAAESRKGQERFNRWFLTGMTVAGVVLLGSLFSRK
LMNB1 (prey, CIC format) (human), sequence (P20700 whole entry): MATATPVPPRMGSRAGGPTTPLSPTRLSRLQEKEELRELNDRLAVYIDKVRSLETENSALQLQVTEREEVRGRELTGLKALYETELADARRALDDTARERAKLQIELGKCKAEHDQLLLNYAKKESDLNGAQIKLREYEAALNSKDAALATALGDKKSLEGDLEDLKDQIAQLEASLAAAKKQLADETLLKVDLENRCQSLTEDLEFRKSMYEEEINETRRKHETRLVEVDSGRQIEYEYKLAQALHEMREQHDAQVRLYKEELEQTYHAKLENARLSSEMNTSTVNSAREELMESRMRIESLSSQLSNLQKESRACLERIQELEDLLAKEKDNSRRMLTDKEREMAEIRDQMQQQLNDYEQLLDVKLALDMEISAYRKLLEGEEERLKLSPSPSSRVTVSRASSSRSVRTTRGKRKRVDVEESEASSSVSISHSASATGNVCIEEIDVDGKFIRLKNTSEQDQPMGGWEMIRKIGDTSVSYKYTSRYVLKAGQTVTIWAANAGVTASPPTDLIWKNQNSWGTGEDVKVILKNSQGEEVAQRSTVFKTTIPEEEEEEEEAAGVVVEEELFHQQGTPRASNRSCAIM

- PLU mean [3]: 0.21
- PLU mean [4]: 0.0617
- PLU mean [5]: 0.265
B2: GADD45A (bait, IN format) (protein, human, UniProt P24522 1-165, looked up)
chain: MTLEEFSAGEQKTERMDKVGDALEEVLSKALSQRTITVGVYEAAKLLNVDPDNVVLCLLAADEDDDRDVALQIHFTLIQAFCCENDINILRVSNPGRLAELLLLETDAGPAASEGAEQPPDLHCVLVTNPHSSQWKDPALSQLICFCRESRYMDQWVPVINLPER

- PLU mean [6]: 2.04
- PLU mean [7]: 0.345
B3: JUNB (bait, IN format) (protein, human, UniProt P17275 1-347, looked up)
chain: MCTKMEQPFYHDDSYTATGYGRAPGGLSLHDYKLLKPSLAVNLADPYRSLKAPGARGPGPEGGGGGSYFSGQGSDTGASLKLASSELERLIVPNSNGVITTTPTPPGQYFYPRGGGSGGGAGGAGGGVTEEQEGFADGFVKALDDLHKMNHVTPPNVSLGATGGPPAGPGGVYAGPEPPPVYTNLSSYSPASASSGGAGAAVGTGSSYPTTTISYLPHAPPFAGGHPAQLGLGRGASTFKEEPQTVPEARSRDATPPVSPINMEDQERIKVERKRLRNRLAATKCRKRKLERIARLEDKVKTLKAENAGLSSTAGLLREQVAQLKQKVMTHVSNGCQLLLGVKGHAF

- PLU mean [8]: 2.15
- PLU mean [9]: 0.217
B4: NCBP1 (bait, IN format) (protein, human, UniProt Q09161 1-790, looked up)
chain: MSRRRHSDENDGGQPHKRRKTSDANETEDHLESLICKVGEKSACSLESNLEGLAGVLEADLPNYKSKILRLLCTVARLLPEKLTIYTTLVGLLNARNYNFGGEFVEAMIRQLKESLKANNYNEAVYLVRFLSDLVNCHVIAAPSMVAMFENFVSVTQEEDVPQVRRDWYVYAFLSSLPWVGKELYEKKDAEMDRIFANTESYLKRRQKTHVPMLQVWTADKPHPQEEYLDCLWAQIQKLKKDRWQERHILRPYLAFDSILCEALQHNLPPFTPPPHTEDSVYPMPRVIFRMFDYTDDPEGPVMPGSHSVERFVIEENLHCIIKSHWKERKTCAAQLVSYPGKNKIPLNYHIVEVIFAELFQLPAPPHIDVMYTTLLIELCKLQPGSLPQVLAQATEMLYMRLDTMNTTCVDRFINWFSHHLSNFQFRWSWEDWSDCLSQDPESPKPKFVREVLEKCMRLSYHQRILDIVPPTFSALCPANPTCIYKYGDESSNSLPGHSVALCLAVAFKSKATNDEIFSILKDVPNPNQDDDDDEGFSFNPLKIEVFVQTLLHLAAKSFSHSFSALAKFHEVFKTLAESDEGKLHVLRVMFEVWRNHPQMIAVLVDKMIRTQIVDCAAVANWIFSSELSRDFTRLFVWEILHSTIRKMNKHVLKIQKELEEAKEKLARQHKRRSDDDDRSSDRKDGVLEEQIERLQEKVESAQSEQKNLFLVIFQRFIMILTEHLVRCETDGTSVLTPWYKNCIERLQQIFLQHHQIIQQYMVTLENLLFTAELDPHILAVFQQFCALQA

The next lines start with the binder.

B1: ATF3 (bait, IN format) (protein, human, UniProt P18847 1-181, looked up)
chain: MMLQHPGQVSASEVSASAIVPCLSPPGSLVFEDFANLTPFVKEELRFAIQNKHLCHRMSSALESVTVSDRPLGVSITKAEVAPEEDERKKRRRERNKIAAAKCRNKKKEKTECLQKESEKLESVNAELKAQIEELKNEKQHLIYMLNLHRPTCIVRAQNGRTPEDERNLFIQQIKEGTLQS
- PLU mean [1]: 1.64
- PLU mean [2]: 0.134

B5: CEBPG (bait, IN format) (protein, human, UniProt P53567 1-150, looked up)
chain: MSKISQQNSTPGVNGISVIHTQAHASGLQQVPQLVPAGPGGGGKAVAPSKQSKKSSPMDRNSDEYRQRRERNNMAVKKSRLKSKQKAQDTLQRVNQLKEENERLEAKIKLLTKELSVLKDLFLEHAHNLADNVQSISTENTTADGDNAGQ
- PLU mean [10]: 0.0585
- PLU mean [11]: 0.482
- PLU mean [12]: 0.788

B6: BAD (bait, IN format) (protein, human, UniProt Q92934 1-168, looked up)
chain: MFQIPEFEPSEQEDSSSAERGLGPSPAGDGPSGSGKHHRQAPGLLWDASHQQEQPTSSSHHGGAGAVEIRSRHSSYPAGTEDDEGMGEEPSPFRGRSRSAPPNLWAAQRYGRELRRMSDEFVDSFKKGLPRPKSAGTATQMRQSSSWTRVFQSWWDRNLGRGSSAPSQ
- PLU mean [13]: 1.85
- PLU mean [14]: 0.499

B7: DR1 (bait, IN format) (protein, human, UniProt Q01658 1-176, looked up)
chain: MASSSGNDDDLTIPRAAINKMIKETLPNVRVANDARELVVNCCTEFIHLISSEANEICNKSEKKTISPEHVIQALESLGFGSYISEVKEVLQECKTVALKRRKASSRLENLGIPEEELLRQQQELFAKARQQQAELAQQEWLQMQQAAQQAQLAAASASASNQAGSSQDEEDDDDI
- PLU mean [15]: 3.97
- PLU mean [16]: 0.0529
